In patent publication US20260234240A1 (published 2026):

How the values were obtained:
cynoIL10 = assay: kinetic binding assay
[1] = molecular target: T1, IL-10 (Accession no. P22301) (UniProt P22301 19-178); assay: SPR
T1 chain: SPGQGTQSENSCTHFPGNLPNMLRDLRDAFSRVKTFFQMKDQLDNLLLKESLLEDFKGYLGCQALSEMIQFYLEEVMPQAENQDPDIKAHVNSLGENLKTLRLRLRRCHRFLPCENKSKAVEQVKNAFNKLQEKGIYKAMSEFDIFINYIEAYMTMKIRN

[2] = molecular target: T1, IL-10 (Accession no. P22301); assay: kinetic binding assay
Cyno IL10 = assay: SPR
hIL10R1 = assay: kinetic binding assay
MK1966 = assay: SPR
MK1966 (benchmark) = assay: kinetic binding assay

B1: h49G08 (antibody, V domains shown)
VH: EVQLVESGGGLVQPGGSLRLSCAASGFTFSDYYMYWVRQAPGKGLEWVSTISDGGSYTYYPDSVKGRFTISRDNAKNNLYLQMNSLRAEDTAVYYCARGYYYGLFTYWGQGTLVTVSS
VL: DIQMTQSPSSLSASVGDRVTITCRASQDVNTGLNWYQQKPGQAPKLLIYWASSRQSGVPSRFSGSGSGTDFTLTISSLQPEDFATYYCQQHYSTPYTFGQGTKLEIK
**Q.** B1 was tested. Which Kd (cynoIL10) did it give?
**A.** The Kd was < 0.001 nM.

B2: 49G08_H1L2 (antibody, V domains shown)
VH: B1 VH
VL: B1 VL
**Q.** Which Kd [1] does the source give for B2 here?
**A.** The Kd was 0.16 nM.

**Q.** What about the Kd [2] of the same binder?
**A.** Its Kd is 0.0199 nM.

B3: hu49G08 (antibody, V domains shown)
VH: B1 VH
VL: B1 VL
**Q.** With B3 as the binder, how does the Kd (Cyno IL10) read?
**A.** Its Kd is 0.11 nM.

B4: αIL-10R candidate (antibody, V domains shown)
VH: QVQLQESGPGLVKPSETLSLTCTVSGGSISSDYWSWIRQPAGKRLEWIGRIFTSGSTNYNPSLKSRVTMSVDTSKNQFSLKLNSLTAADTAVYYCARDDWYFDLWGRGTLVTVSS
VL: EIVMTQSPATLSVSPGERATLSCRASQSVSNNLAWYQQKPGQAPRFLIYGASTRATGMPARFSGSGSGTEFTLTISSLQSEDFAVYFCQQYNEWPWTFGQGTKVEIK
**Q.** With B4 as the binder, how does the Kd (hIL10R1) read?
**A.** The Kd was 0.117 nM.

B5: Human IL10 (ligand)
chain: T1 chain
**Q.** For B5, which Kd (MK1966) is on record?
**A.** Its Kd is 0.14 nM.

B6: hIL10 (ligand)
chain: T1 chain
**Q.** Which Kd (MK1966 (benchmark)) does the source give for B6 here?
**A.** The Kd was 0.0266 nM.
